This passage reports Kd results from article PMC6476560 (PLoS ONE, 2019).

Sequences and labels used below:
T1: fluorescently labelled Dop (deamidase of Pup; depupylase) (UniProt P9WNU9 1-505)
T1 sequence: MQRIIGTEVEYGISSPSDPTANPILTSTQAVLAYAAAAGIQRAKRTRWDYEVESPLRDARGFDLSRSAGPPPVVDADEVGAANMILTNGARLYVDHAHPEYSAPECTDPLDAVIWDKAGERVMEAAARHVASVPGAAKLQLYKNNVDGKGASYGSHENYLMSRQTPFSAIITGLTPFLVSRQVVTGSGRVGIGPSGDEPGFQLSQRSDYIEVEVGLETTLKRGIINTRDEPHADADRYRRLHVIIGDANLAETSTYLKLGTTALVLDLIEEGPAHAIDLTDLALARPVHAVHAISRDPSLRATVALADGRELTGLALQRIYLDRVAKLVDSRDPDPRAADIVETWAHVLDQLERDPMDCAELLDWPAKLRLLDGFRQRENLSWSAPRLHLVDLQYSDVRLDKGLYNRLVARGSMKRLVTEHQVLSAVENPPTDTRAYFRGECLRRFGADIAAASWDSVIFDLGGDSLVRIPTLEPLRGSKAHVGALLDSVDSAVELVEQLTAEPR

B1: Pup-Icl1-Fl (fluorescein-labelled pupylated isocitrate lyase 1 Icl1) (complex)
chain 1: MSVVGTPKSAEQIQQEWDTNPRWKDVTRTYSAEDVVALQGSVVEEHTLARRGAEVLWEQLHDLEWVNALGALTGNMAVQQVRAGLKAIYLSGWQVAGDANLSGHTYPDQSLYPANSVPQVVRRINNALQRADQIAKIEGDTSVENWLAPIVADGEAGFGGALNVYELQKALIAAGVAGSHWEDQLASEKKCGHLGGKVLIPTQQHIRTLTSARLAADVADVPTVVIARTDAEAATLITSDVDERDQPFITGERTREGFYRTKNGIEPCIARAKAYAPFADLIWMETGTPDLEAARQFSEAVKAEYPDQMLAYNCSPSFNWKKHLDDATIAKFQKELAAMGFKFQFITLAGFHALNYSMFDLAYGYAQNQMSAYVELQEREFAAEERGYTATKHQREVGAGYFDRIATTVDPNSSTTALTGSTEEGQFH
chain 2: MAQEQTKRGGGGGDDDDIAGSTAAGQERREKLTEETDDLLDEIDDVLEENAEDFVRAYVQKGGE
notes: copies: 4 + 2
B2: Pup-Icl1 (pupylated isocitrate lyase 1 Icl1), unlabelled (complex)
chain 1: B1 chain 1
chain 2: B1 chain 2
notes: copies: 4 + 2
B3: wild-type MtbMpa (mycobacterial proteasomal ATPase), hexamer (enzyme)
chain: MGESERSEAFGIPRDSPLSSGDAAELEQLRREAAVLREQLENAVGSHAPTRSARDIHQLEARIDSLAARNSKLMETLKEARQQLLALREEVDRLGQPPSGYGVLLATHDDDTVDVFTSGRKMRLTCSPNIDAASLKKGQTVRLNEALTVVEAGTFEAVGEISTLREILADGHRALVVGHADEERVVWLADPLIAEDLPDGLPEALNDDTRPRKLRPGDSLLVDTKAGYAFERIPKAEVEDLVLEEVPDVSYADIGGLSRQIEQIRDAVELPFLHKELYREYSLRPPKGVLLYGPPGCGKTLIAKAVANSLAKKMAEVRGDDAHEAKSYFLNIKGPELLNKFVGETERHIRLIFQRAREKASEGTPVIVFFDEMDSIFRTRGTGVSSDVETTVVPQLLSEIDGVEGLENVIVIGASNREDMIDPAILRPGRLDVKIKIERPDAEAAQDIYSKYLTEFLPVHADDLAEFDGDRSACIKAMIEKVVDRMYAEIDDNRFLEVTYANGDKEVMYFKDFNSGAMIQNVVDRAKKNAIKSVLETGQPGLRIQHLLDSIVDEFAENEDLPNTTNPDDWARISGKKGERIVYIRTLVTGKSSSASRAIDTESNLGQYL

Common to all, as to assay: MST
Common to all, as to conditions: both partners purified

The target in test [1] is B3.
Test [2] concerns the target T1, fluorescently labelled Dop (deamidase …).
The target of test [3] is Pup-PckA-Fl (fluorescein-labelled pupylated phosphoenolpyruvate carboxykinase PckA) (Mycobacterium tuberculosis, UniProt P9WIH3;P9WHN5, PupE (C-terminal glutamine as glutamate)).

In test [1], B1 showed a Kd of 160 ± 30 nM.

The molecule B2 had a Kd in test [2] of 129 ± 41 nM.

On to B3, for which the Kd in test [3] amounted to 210 ± 100 nM.
